Experimental data as given in US20250099540A1 (INSERM INSTITUT NATIONAL DE LA SANT ET DE LA RECHERCHE M …, published 2025).

Biological target: T1, purified integrin αIIbβ3 (R&D Systems #7148-A2-025) (UniProt P08514 32-993; P05106 27-718)
T1 construct: One protein preparation was tested in two states; also called GPIIb-IIIa; CD41/CD61
Experiment: SPR single-cycle kinetics, sEng-Strep on SA chip, activated Ca2+/Mn2+-loaded integrin as analyte, 25° C.; apparent value; activated Ca2+/Mn2+-loaded integrin αIIbβ3 as analyte
Method: The association between sEng-Strep-tag® II and integrin αIIbβ3 was analyzed by surface plasmon resonance (SPR) on a streptavidin (SA) biosensor (Cytiva) at 25° C. First, we immobilized resonance units (RU) of sEng-Strep-tag® II onto the test flow cell of a SA chip through the C-terminal StrepII-tag to provide a sEng concentration on the surface of ˜10 μM. The reference flow cell was not modified. […] Polysorbate 20 (PS20), either supplemented with 1 mM MnCl2 and 1 mM CaCl2 or after extensive dialysis against EDTA to remove residual divalent cations in the protein preparation. Integrin αIIbβ3 (25 μg per experiment) was resuspended to 0.2 mg/ml (˜1 μM) in the appropriate running buffer before use. Analysis was performed with the BiaEvaluation version 3.0.2 software (Cytiva) and the Anabel webserver.
To investigate this interaction, we analyzed the association between sEng-Strep-tag® II (sEng-Strep) and integrin αIIbβ3 by surface plasmon resonance (SPR) on a streptavidin (SA) biosensor (Cytiva) at 25° C. using single-cycle kinetics. When non-activated integrin αIIbβ3 was flowed over surface-immobilized sEng-Strep, no binding was detected (FIG. 5).

- Kd: < 9 nM
- koff: < 0.008 s⁻¹
B1: sEng-Strep-tag II (streptavidin-tagged construct of soluble endoglin) (receptor, human, UniProt P17813 26-586, looked up)
chain: ETVHCDLQPVGPERGEVTYTTSQVSKGCVAQAPNAILEVHVLFLEFPTGPSQLELTLQASKQNGTWPREVLLVLSVNSSVFLHLQALGIPLHLAYNSSLVTFQEPPGVNTTELPSFPKTQILEWAAERGPITSAAELNDPQSILLRLGQAQGSLSFCMLEASQDMGRTLEWRPRTPALVRGCHLEGVAGHKEAHILRVLPGHSAGPRTVTVKVELSCAPGDLDAVLILQGPPYVSWLIDANHNMQIWTTGEYSFKIFPEKNIRGFKLPDTPQGLLGEARMLNASIVASFVELPLASIVSLHASSCGGRLQTSPAPIQTTPPKDTCSPELLMSLIQTKCADDAMTLVLKKELVAHLKCTITGLTFWDPSCEAEDRGDKFVLRSAYSSCGMQVSASMISNEAVVNILSSSSPQRKKVHCLNMDSLSFQLGLYLSPHFLQASNTIEPGQQSFVQVRVSPSVSEFLLQLDSCHLDLGPEGGTVELIQGRAAKGNCVSLLSPSPEGDPRFSFLLHFYTVPIPKTGTLSCTVALRPKTGSQDQEVHRTVFMRLNIISPDLSGCTSKG
notes: extracellular domain; Immobilised on a streptavidin (SA) chip through the C-terminal StrepII-tag; not shown: C-terminal Strep-tag II
